Assay results from patent US20200002421A1, “ANTI-B7-H3 ANTIBODIES AND ANTIBODY DRUG CONJUGATES” (AbbVie Inc., priority 2016, published 2020).

T1: huB7-H3 (Homo sapiens, UniProt Q5ZPR3)
T1 construct: His tag (6xHis) (C)
T1 sequence (Q5ZPR3 with tags, fused parts or gaps): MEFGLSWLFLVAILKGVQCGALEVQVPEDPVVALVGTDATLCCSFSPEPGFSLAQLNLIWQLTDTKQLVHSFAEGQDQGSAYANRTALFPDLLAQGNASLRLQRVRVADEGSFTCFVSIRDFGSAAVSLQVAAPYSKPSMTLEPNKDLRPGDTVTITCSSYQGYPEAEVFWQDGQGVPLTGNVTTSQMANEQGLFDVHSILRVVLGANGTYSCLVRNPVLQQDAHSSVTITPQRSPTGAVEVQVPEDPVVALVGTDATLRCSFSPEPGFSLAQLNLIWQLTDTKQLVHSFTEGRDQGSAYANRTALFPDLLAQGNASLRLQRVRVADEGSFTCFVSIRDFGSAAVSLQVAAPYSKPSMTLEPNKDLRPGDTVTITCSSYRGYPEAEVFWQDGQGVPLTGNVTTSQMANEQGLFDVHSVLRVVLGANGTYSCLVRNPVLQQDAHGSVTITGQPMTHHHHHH


target: T1, huB7-H3; assay: Biacore T200 SPR binding kinetics, mAb capture; details: Table 3
Protocol: The binding affinity of the purified anti-B7-H3 monoclonal antibodies was determined by surface […]. […] The binding kinetics were derived from SPR measurements using a Biacore T200 instrument and a mAb capture approach (as described in the materials and methods below).
Biacore T200 SPR instruments were used to measure the binding kinetics of human B7-H3 (4Ig-B7-H3 variant) (analyte) binding to various mAbs (ligands). The assay format was Fc-based capture via immobilized anti-mouse (Fc) (Pierce 31170) or immobilized anti-human (Fc) (Pierce 31125). A standard amine coupling protocol was employed to immobilize the capture reagents via primary amines to the carboxy-methyl (CM) dextran surface of CM5 sensorchips (Biacore); capture antibodies were coupled to a level of approximately 5000 RU. For binding kinetic measurements the assay buffer was HBS-EP+(Biacore): 10 mM Hepes, pH7.4, 150 mM NaCl, 3 mM EDTA, 0.05% polysorbate 20. During the assay, all measurements were referenced against the capture surface alone. Each assay cycle consisted of the following steps: 1) Capture of ligand to approximately 50 RU; 2) Analyte injection over both reference and test surface, 240 μL at 80 μL/min, after which the dissociation was monitored for 900 seconds at 80 μL/min; 3) Regeneration of capture surface with low pH glycine. For kinetic determinations analyte injections were 3-point, 9-fold dilution series of 900 nM, 100 nM and 11.11 nM, buffer only injections were included for secondary referencing. Data were processed and fit to a 1:1 binding model using Biacore T200 Evaluation Software to determine the binding kinetic rate constants, ka (on-rate) and kd (off-rate), and the equilibrium dissociation constant (affinity, KD).

| Molecule | huB7-H3 ka(1/Ms) [M⁻¹ s⁻¹] |
| --- | --- |
| Ab6: mouse hybridoma anti-B7-H3 monoclonal antibody, mouse IgG1/k (antibody, V domains shown) VH: QVQLQQSGAELMKPGASVKISCKATGYTFSRYWIEWVKQRPGHGLEWIGEILPGSGSTNYNEKFKGKATFTADTSSNTAYMQVSSLTSEDSAVHYCARRGYGYVPYALDYWGQGTSVTVSS VL: EIQMTQTTSSLSASLGDRVTISCRASQDISNSLNWYQQKPDGTVNLLIYYTSRLYSGVPSRFSGSGSGTDYSLTISNLEQEDIATYFCQQGNTLPYTFGGGTKLEIK | 12000 |
| Ab10: mouse hybridoma anti-B7-H3 monoclonal antibody, mouse IgG2b/k (antibody, V domains shown) VH: DVQLQESGPGLVKPSQSLSLTCTVTGYSITSDYAWNWIRQFPGNRLEWMGHINYSGITNYNPSLKSRISITRDTSKNQFFLQLYSVTTEDTATYFCARRSLFYYYGSSLYAMDYWGQGTSVTVSS VL: DVVMTQSPFSLPVSLGDQASISCRSSQSLVHSNGNTYLHWYLQKPGQSPKLLIYKVSNRFSGVPDRFSGSGSGTDFTLKISRVEAEDLGVYFCSQSTHVPWTFGGGTKLEIK | 41000 |
| Ab2: mouse hybridoma anti-B7-H3 monoclonal antibody, mouse IgG1/k (antibody, V domains shown) VH: QVQLQQPGAELVKPGASVKLSCKASGYTFTSYWMHWVKQRPGQGLEWIGMIHPDSGTTNYNEKFRSKATLTVDKSSSTAYMQLSSLTSEDSAVYYCAVYYGSTYWYFDVWGTGTTVTVSS VL: DVVMTQTPLSLPVSLGDQAYISCRSSQSLVHINGNTYLHWYRQKPGQSPKLLIYKVSNRFSGVPDRFSGSGSGTDFTLKISRVEAEDLGVYFCSQSTHFPFTFGSGTKLEIK | 120000 |

Other lines, results leading:

| huB7-H3 ka(1/Ms) [M⁻¹ s⁻¹] | Molecule |
| --- | --- |
| 330000 | Ab13: mouse hybridoma anti-B7-H3 monoclonal antibody, mouse IgG1/k (antibody, V domains shown) VH: DVQLQESGPDLVKPSQSLSLTCTVTGYSITSGYSWHWIRQFPGNKLEWMGYIHSSGSTNYNPSLKSRISINRDTSKNQFFLQLNSVTTEDTATYYCAGYDDYFEYWGQGTTLTVSS VL: DIVMTQSQKFMSTSVGDRVSVTCKASQNVGFNVAWYQQKPGQSPKALIYSASYRYSGVPDRFTGSGSGTDFTLTISNVQSEDLAEYFCQQYNSYPFTFGSGTKLEIK |
| 110000 | Ab14: mouse hybridoma anti-B7-H3 monoclonal antibody, mouse IgG1/k (antibody, V domains shown) VH: EVKLVESGGGLVKPGGSLKLSCAASGFTFSSYGMSWVRQTPEKRLEWVATISGGGTNTYYPDSVEGRFTISRDNAKNFLYLQMSSLRSEDTALYYCARHYGSQTMDYWGQGTSVTVSS VL: DIQMTQSPASLSASVGETVTITCRTSGNIHNYLTWYQQKQGKSPQLLVYNAKTLADGVPSRFSGSGSGTQFSLKINSLQPEDFGSYYCQHFWSIMWTFGGGTKLEIK |
| 140000 | Ab16: mouse hybridoma anti-B7-H3 monoclonal antibody, mouse IgG1/k (antibody, V domains shown) VH: EVKLLESGGGLVQPGGSLKLSCAASGFDFSRYWMSWVRQAPGKGLEWIGEINPDSSTINYTPSLKDKFIISRDNAKNTLYLQMSKVRSEDTALYYCARPGFGNYIYAMDYWGQGTSVTVSS VL: DIQMTQTTSSLSASLGDRVTINCRASQDISNFLNWYQQKPDGTVKLLIYYTSRLYLGVPSRFSGSGSGTDYSLTISNLEQEDIATYFCQQGNTLPPTFGGGTKLEIK |
| 210000 | Ab18: mouse hybridoma anti-B7-H3 monoclonal antibody, mouse IgG1/k (antibody, V domains shown) VH: QVQLQQSAAELARPGASVKMSCKASGYSFTSYTIHWVKQRPGQGLEWIGYINPNSRNTDYNQKFKDETTLTADRSSSTAYMQLISLTSEDSAVYYCARYSGSTPYWYFDVWGAGTTVTVSS VL: QIVLTQSPAILSASPGEKVTMTCRASSSVSYMNWYQQKPGSSPKPWIYATSNLASGVPARFSVSVSGTSHSLTISRVEAEDAATYYCQQWSSNPLTFGAGTKLELK |
